Here are results for two substances from patent US20250223614A1.

The target in test [1] is Cfa C-intein fused to the N-terminus of the C-terminal fragment of adenosine base editor ABE8.5 (starting at Cas9 position 310). Description: cell-based or functional assay.
Test [2] has as its target Gp41.1 C-intein fused to the N-terminus of the C-terminal fragment of adenosine base editor ABE8.5 (starting at Cas9 position 310). Description: cell-based or functional assay.

As for “N-terminal fragment of adenosine base editor ABE8.5 (ending at Cas9 position 309) fused at its C-terminus to Cfa N-intein”, in test [1], the A7G Edit % (Exp. 1); average (N = 4) percent A > G conversion came to 48.2%, the A7G Edit % (Exp. 2); average (N = 4) percent A > G conversion was 74.7%, the A7G Edit; average percent A > G conversion measured in Exps. 1-3 was 64.3% and the A7G Edit; percent A > G conversion (Exp. 3) was 70%.

In test [2], “N-terminal fragment of adenosine base editor ABE8.5 (ending at Cas9 position 309) fused at its C-terminus to the Gp41.1-SC N-intein” gave an A7G Edit % (Exp. 1); average (N = 4) percent A > G conversion of 54.9%, an A7G Edit % (Exp. 2); average (N = 4) percent A > G conversion of 72.5% and an A7G Edit; average percent A > G conversion (2 experiments only) of 63.7%.
